One experiment has as its target T1, human CD94 protein (human, UniProt Q13241 34-179, limits assumed).
T1 sequence (looked up): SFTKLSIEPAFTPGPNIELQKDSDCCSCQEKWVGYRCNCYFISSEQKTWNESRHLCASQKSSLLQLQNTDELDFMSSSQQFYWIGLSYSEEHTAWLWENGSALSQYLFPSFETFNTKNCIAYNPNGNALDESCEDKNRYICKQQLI
The experiment is described as follows: OCTET BLI, Fab on human CD94 protein.

Experiment [1] has as its target T2, human CD94 expressed on cells (human primary NK cells in PBMCs; HEK cells expressing human CD94) (human, UniProt Q13241 1-179).
T2 construct: whole, on cells; also called KLRD1; Natural killer cells antigen CD94
T2 sequence (looked up): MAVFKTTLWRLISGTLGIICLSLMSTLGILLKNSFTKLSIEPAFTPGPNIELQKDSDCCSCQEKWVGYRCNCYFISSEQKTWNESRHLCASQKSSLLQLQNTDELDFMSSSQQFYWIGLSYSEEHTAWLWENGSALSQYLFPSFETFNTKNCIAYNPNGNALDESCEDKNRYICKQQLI
The experiment is described as follows: flow cytometry, HEK cells expressing human CD94, average of 2 runs. As to the method: (§1) Binding of the variant antibodies to HEK cells expressing human CD94 was also tested. Variants and ATX-130 antibodies were generated in human IgG1 form, and binding to HEK cells expressing human CD94 was assessed using flow cytometry. Experiments were run in duplicate, and the average EC50 of the 2 runs was calculated.
(A flow cytometer gives signals particle by particle.)

The target of experiment [2] is T2, human CD94 expressed on cells (human …). Kind of experiment: flow cytometry, HEK cells expressing human CD94, 2nd run. The protocol: as §1
For experiment [3] the target is unchanged. Kind of experiment: flow cytometry, HEK cells expressing human CD94, 1st run. The protocol:
as §1

This is an account of results in patent publication US20250197505A1 (DREN BIO, published 2025).

B1: ATX-130 Fab (Fab, V domains shown)
VH: EVQLLESGGGLVKPGGSLRLSCAASGFTFSSYSMNWVRQAPGKGLEWVSSISTSSNFIYYADSVKGRFTISRDNAKNSLYLQMNSLRAEDTAVYYCARDLGRYYYYMDVWGKGTTVTVSS
VL: DIVMTQSPSSLSASVGDRVTITCRASQSISSWLAWYQQKPGKAPKSLIYAASSLQSGVPSKFSGSGSGTDFTLTISSLQPEDVATYYCQKYNSAPFTFGPGTKVDIK
notes: Fab version
Consider B1, for which the koff (usually the first-order rate constant of dissociation) with human CD94 protein turned out to be 0.0029 s⁻¹.

B2: ATX-130 hG1 (antibody, V domains shown)
VH: EVQLLESGGGLVKPGGSLRLSCAASGFTFSSYSMNWVRQAPGKGLEWVSSISTSSNFIYYADSVKGRFTISRDNAKNSLYLQMNSLRAEDTAVYYCARDLGRYYYYMDVWGKGTTVTVSS
VL: DIVMTQSPSSLSASVGDRVTITCRASQSISSWLAWYQQKPGKAPKSLIYAASSLQSGVPSKFSGSGSGTDFTLTISSLQPEDVATYYCQKYNSAPFTFGPGTKVDIK
notes: Human IgG1 form; also called ATX-130 human IgG1
Regarding B2, the EC50 (as a rule, the concentration giving half of the maximal effect) turned out to be 0.12 nM in experiment [1], 0.12 nM in experiment [2] and 0.11 nM in experiment [3].

B3: Ab.25 Fab (Fab, V domains shown)
VH: EVQLLESGGGLVKPGGSLRLSCAASGFTFSSYSMNWVRQAPGKGLEWVSSISTSSNYIYYADSVKGRFTISRDNAKNSLYLQMNSLRAEDTAVYYCARDLGRYYYYMDVWGKGTTVTVSS
VL: DIVMTQSPSSLSASVGDRVTITCRASQSISSWLAWYQQKPGKAPKSLIYAASSLQSGVPSKFSGSGSGTDFTLTISSLQPEDVATYYCQKYNSAPFTFGPGTKVDIK
notes: Fab version; VH cell printed as 'SEO ID NO: 32'
In turn, B3 yielded a koff with human CD94 protein of 0.00387 s⁻¹.

B4: Ab.26 hG1 (antibody, V domains shown)
VH: EVQLLESGGGLVKPGGSLRLSCAASGFTFSSYSMNWVRQAPGKGLEWVSSISTSSNFIYYADSVKGRFTISRDNAKNSLYLQMNSLRAEDTAVYYCARDLGRYYYYMDVWGKGTTVTVSS
VL: DIQMTQSPSSLSASVGDRVTITCRASQSISSWLAWYQQKPGKAPKSLIYAASSLQSGVPSKFSGSGSGTDFTLTISSLQPEDVATYYCQKYNSAPFTFGPGTKVDIK
notes: Human IgG1 form; also called Ab.26 human IgG1
In the case of B4, the EC50 in experiment [1], in experiment [2] and in experiment [3] was 0.14 nM throughout.

B5: Ab.25 hG1 (antibody, V domains shown)
VH: EVQLLESGGGLVKPGGSLRLSCAASGFTFSSYSMNWVRQAPGKGLEWVSSISTSSNYIYYADSVKGRFTISRDNAKNSLYLQMNSLRAEDTAVYYCARDLGRYYYYMDVWGKGTTVTVSS
VL: DIVMTQSPSSLSASVGDRVTITCRASQSISSWLAWYQQKPGKAPKSLIYAASSLQSGVPSKFSGSGSGTDFTLTISSLQPEDVATYYCQKYNSAPFTFGPGTKVDIK
notes: Human IgG1 form; VH cell printed as 'SEO ID NO: 32'; also called Ab.25 human IgG1
For B5, the EC50 in experiment [1] worked out at 0.15 nM; in experiment [2], 0.14 nM; in experiment [3], 0.15 nM.

B6: Ab.26 Fab (Fab, V domains shown)
VH: EVQLLESGGGLVKPGGSLRLSCAASGFTFSSYSMNWVRQAPGKGLEWVSSISTSSNFIYYADSVKGRFTISRDNAKNSLYLQMNSLRAEDTAVYYCARDLGRYYYYMDVWGKGTTVTVSS
VL: DIQMTQSPSSLSASVGDRVTITCRASQSISSWLAWYQQKPGKAPKSLIYAASSLQSGVPSKFSGSGSGTDFTLTISSLQPEDVATYYCQKYNSAPFTFGPGTKVDIK
notes: Fab version
The molecule B6 registered a koff with human CD94 protein of 0.00446 s⁻¹.

B7: Ab.22 Fab (Fab, V domains shown)
VH: EVQLVESGGGLVKPGGSLRLSCAASGFTFSSYSMNWVRQAPGKGLEWVSSISTSSNFIYYADSVKGRFTISRDNAKNSLYLQMNSLRAEDTAVYYCARDLGRYYYYMDVWGKGTTVTVSS
VL: DIVMTQSPSSLSASVGDRVTITCRASQSISSWLAWYQQKPGKAPKSLIYAASSLQSGVPSKFSGSGSGTDFTLTISSLQPEDVATYYCQKYNSAPFTFGPGTKVDIK
notes: Fab version
With B7, the koff with human CD94 protein was 0.00238 s⁻¹.

B8: Ab.24 Fab (Fab, V domains shown)
VH: EVQLLESGGGLVKPGGSLRLSCAASGFTFSSYSMNWVRQAPGKGLEWVSSISTSSSFIYYADSVKGRFTISRDNAKNSLYLQMNSLRAEDTAVYYCARDLGRYYYYMDVWGKGTTVTVSS
VL: DIVMTQSPSSLSASVGDRVTITCRASQSISSWLAWYQQKPGKAPKSLIYAASSLQSGVPSKFSGSGSGTDFTLTISSLQPEDVATYYCQKYNSAPFTFGPGTKVDIK
notes: Fab version
In turn, B8 came in with a koff in the experiment with human CD94 protein of 0.00695 s⁻¹.

B9: Ab.33 Fab (Fab, V domains shown)
VH: EVQLLESGGGLVKPGGSLRLSCAASGFTFSSYSMNWVRQAPGKGLEWVSSISTSSNFIYYADSVKGRFTISRDNAKNSLYLQMNSLRAEDTAVYYCARDLGRYYYYMDVWGKGTTVTVSS
VL: DIVMTQSPSSLSASVGDRVTITCRASQSISSWLAWYQQKPGKAPKSLIYAASSLQSGVPSKFSGSGSGTDFTLTISSLQPEDVATYYCQQYNSAPFTFGPGTKVDIK
notes: Fab version
As to B9, in the experiment with human CD94 protein, the koff came to 0.00481 s⁻¹.

B10: Ab.28 Fab (Fab, V domains shown)
VH: EVQLLESGGGLVKPGGSLRLSCAASGFTFSSYSMNWVRQAPGKGLEWVSSISTSSNFIYYADSVKGRFTISRDNAKNSLYLQMNSLRAEDTAVYYCARDLGRYYYYMDVWGKGTTVTVSS
VL: DIVMTQSPSSLSASVGDRVTITCRASQSISSWLAWYQQKPEKAPKSLIYAASSLQSGVPSKFSGSGSGTDFTLTISSLQPEDVATYYCQKYNSAPFTFGPGTKVDIK
notes: Fab version
With B10, in the experiment with human CD94 protein, the koff was 0.00425 s⁻¹.

B11: Ab.34 Fab (Fab, V domains shown)
VH: EVQLLESGGGLVKPGGSLRLSCAASGFTFSSYSMNWVRQAPGKGLEWVSSISTSSNFIYYADSVKGRFTISRDNAKNSLYLQMNSLRAEDTAVYYCARDLGRYYYYMDVWGKGTTVTVSS
VL: DIVMTQSPSSLSASVGDRVTITCRASQSISSWLAWYQQKPGKAPKSLIYAASSLQSGVPSKFSGSGSGTDFTLTISSLQPEDVATYYCQKYNSYPFTFGPGTKVDIK
notes: Fab version
B11 gave an off-rate constant (koff) with human CD94 protein of 0.00576 s⁻¹. The koff values of the last two molecules are within 1.5-fold of each other.

B12: Ab.32 Fab (Fab, V domains shown)
VH: EVQLLESGGGLVKPGGSLRLSCAASGFTFSSYSMNWVRQAPGKGLEWVSSISTSSNFIYYADSVKGRFTISRDNAKNSLYLQMNSLRAEDTAVYYCARDLGRYYYYMDVWGKGTTVTVSS
VL: DIVMTQSPSSLSASVGDRVTITCRASQSISSWLAWYQQKPGKAPKSLIYAASSLQSGVPSKFSGSGSGTDFTLTISSLQPEDFATYYCQKYNSAPFTFGPGTKVDIK
notes: Fab version
As for B12, the koff with human CD94 protein is 0.0031 s⁻¹.

B13: Ab.27 Fab (Fab, V domains shown)
VH: EVQLLESGGGLVKPGGSLRLSCAASGFTFSSYSMNWVRQAPGKGLEWVSSISTSSNFIYYADSVKGRFTISRDNAKNSLYLQMNSLRAEDTAVYYCARDLGRYYYYMDVWGKGTTVTVSS
VL: DIVMTQSPSSLSASVGDRVTITCRASQSISSWLAWFQQKPGKAPKSLIYAASSLQSGVPSKFSGSGSGTDFTLTISSLQPEDVATYYCQKYNSAPFTFGPGTKVDIK
notes: Fab version
The molecule B13 showed a koff with human CD94 protein of 0.00421 s⁻¹.

B14: Ab.24 hG1 (antibody, V domains shown)
VH: EVQLLESGGGLVKPGGSLRLSCAASGFTFSSYSMNWVRQAPGKGLEWVSSISTSSSFIYYADSVKGRFTISRDNAKNSLYLQMNSLRAEDTAVYYCARDLGRYYYYMDVWGKGTTVTVSS
VL: DIVMTQSPSSLSASVGDRVTITCRASQSISSWLAWYQQKPGKAPKSLIYAASSLQSGVPSKFSGSGSGTDFTLTISSLQPEDVATYYCQKYNSAPFTFGPGTKVDIK
notes: Human IgG1 form; also called Ab.24 human IgG1
In the case of B14, the EC50 came to 0.14 nM in experiment [1], 0.13 nM in experiment [2] and 0.14 nM in experiment [3].

B15: Ab.22 hG1 (antibody, V domains shown)
VH: EVQLVESGGGLVKPGGSLRLSCAASGFTFSSYSMNWVRQAPGKGLEWVSSISTSSNFIYYADSVKGRFTISRDNAKNSLYLQMNSLRAEDTAVYYCARDLGRYYYYMDVWGKGTTVTVSS
VL: DIVMTQSPSSLSASVGDRVTITCRASQSISSWLAWYQQKPGKAPKSLIYAASSLQSGVPSKFSGSGSGTDFTLTISSLQPEDVATYYCQKYNSAPFTFGPGTKVDIK
notes: Human IgG1 form; also called Ab.22 human IgG1
Consider B15, for which the EC50 in experiment [1], in experiment [2] and in experiment [3] was 0.12 nM each time.

B16: Ab.29 Fab (Fab, V domains shown)
VH: EVQLLESGGGLVKPGGSLRLSCAASGFTFSSYSMNWVRQAPGKGLEWVSSISTSSNFIYYADSVKGRFTISRDNAKNSLYLQMNSLRAEDTAVYYCARDLGRYYYYMDVWGKGTTVTVSS
VL: DIVMTQSPSSLSASVGDRVTITCRASQSISSWLAWYQQKPGKVPKSLIYAASSLQSGVPSKFSGSGSGTDFTLTISSLQPEDVATYYCQKYNSAPFTFGPGTKVDIK
notes: Fab version
Turning to B16, the koff in the experiment with human CD94 protein was 0.00338 s⁻¹.

B17: Ab.31 Fab (Fab, V domains shown)
VH: EVQLLESGGGLVKPGGSLRLSCAASGFTFSSYSMNWVRQAPGKGLEWVSSISTSSNFIYYADSVKGRFTISRDNAKNSLYLQMNSLRAEDTAVYYCARDLGRYYYYMDVWGKGTTVTVSS
VL: DIVMTQSPSSLSASVGDRVTITCRASQSISSWLAWYQQKPGKAPKSLIYAASSLQSGVPSRFSGSGSGTDFTLTISSLQPEDVATYYCQKYNSAPFTFGPGTKVDIK
notes: Fab version
With B17, the off-rate (koff) in the experiment with human CD94 protein amounted to 0.00352 s⁻¹.

B18: Ab.27 hG1 (antibody, V domains shown)
VH: EVQLLESGGGLVKPGGSLRLSCAASGFTFSSYSMNWVRQAPGKGLEWVSSISTSSNFIYYADSVKGRFTISRDNAKNSLYLQMNSLRAEDTAVYYCARDLGRYYYYMDVWGKGTTVTVSS
VL: DIVMTQSPSSLSASVGDRVTITCRASQSISSWLAWFQQKPGKAPKSLIYAASSLQSGVPSKFSGSGSGTDFTLTISSLQPEDVATYYCQKYNSAPFTFGPGTKVDIK
notes: Human IgG1 form; also called Ab.27 human IgG1
With B18, the figures for the EC50 in experiment [1], in experiment [2] and in experiment [3] were 0.22 nM, 0.17 nM and 0.26 nM, respectively.
